Laboratory results published in US20150258217A1, “Methods of Synthesizing and Using Peg-Like Fluorochromes” (THE GENERAL HOSPITAL CORPORATION, priority 2012, published 2015).

What was measured:
[1] = system: HT-29 tumor; assay type: in vivo, mouse
From the text: A Kodak FX multispectral imaging system was used (Carestream Molecular Imaging, Rochester, N.Y.). Excitation at multiple wavelengths (620, 650, 690, 710, 720, 730, 750 and 760 nm) with the emission at 830 nm was setup for IR-783 spectrum; Excitation at multiple wavelengths (420, 440, 460, 480, 510, 520, 530, and 540 nm) with the emission at 600 nm was setup for Cy3 spectrum; Excitation at multiple wavelengths (450, 470, 510, 520, 530, 540, 550, 570, and 590 nm) with the emission at 700 nm was setup for mCherry; with manufacturer's software to separate (unmix) the IR-783 spectrum, Cy3 spectrum, or mCherry spectrum from skin autofluorescence and chlorophyll fluorescence from food. X-ray images were taken after fluorescence images. Animals were anesthetized with 2% isoflurane with O2 flow (2 I/min) during imaging.
Female nude mice (25-30 g; 6-8 weeks old; nu/nu) were anesthetized with 2% isoflurane/O2. HT-29 or mCherry-HT-29 cells were detached, pelleted and 200 μl of cell suspension containing 10^6 cells in Matrigel (BD Bioscience) was injected subcutaneously into right and left shoulders. Tumors were allowed to grow 5-7 days before experiments.
The imaging was performed by Triumph II multimodality imaging system (Gamma Medica Ideas, LLC) comprising XSPECT with four CZT (Cadmium Zink Telluride) detectors and X-O CT with CMOS detector. SPECT data of the ^111In-labeled compound was acquired for 60 minutes using 5-pinhole collimators and processed with 3D-OSEM algorithm using 4 subsets and 5 iterations. 3-dimensional CT data was processed with modified Feldkamp software. […] Animals were under isoflurane anesthesia (1.5%) with O2 flow (1.5 l/min) and kept warm during the imaging with a heated animal bed.
150 μl of ^111In-labeled PN(783)10 (400 μCi, ˜2 nmole) were injected to tumor-bearing animals by tail vein (IV). 24 hours or 48 hours later, animals were sacrificed, and tumors, blood, liver, spleen, stomach, kidneys, small intestine, lung, heart, tail, fat, and muscle, were collected. Radioactivity was measured with Perkin Elmer, Wizard2 2480 gamma counter.

[2] = mouse, in vivo
Procedure: At two hours post injection, agent is in the blood and interstitium. By 24 hours post injection, tumors are becoming apparent as agent is being cleared. At 48 hours, labeling is highly tumor selective. […] By surface fluorescence, as with SPECT, labeling is highly tumor selective at 48 hours. Biodistribution as organ radioactivity concentrations FIG. 26(c) and total organ radioactivity FIG. 26(d) were obtained by dissection and ^111In counting at 24 hours and 48 hours post injection. Even at 48 hours post injection some 7.5% of injected dose is in the blood, with less than 5% in liver, even though the diameter of PN(783)10.0 exceeds that of albumin (6.7 nm). Data are means and standard deviations. […] By 72 hours, some 17% of injected dose was retained, approximately half of which was still in the blood based on FIG. 26d.

[3] = Probe volume determination by FPLC (Superdex 75, globular protein standards); assay type: physicochemical
Procedure: Size (volume) was determined by FPLC using an ÄKTA Purifier 10 and Superdex™ 75 10/300 GL column (GE Healthcare Lifesciences) with a running buffer of 0.05 M sodium phosphate, 0.15 M NaCl (0.1% Tween, pH 7.2) and flow rate of 0.5 ml/min. The protein standards (Gel Filtration Calibration Kit LMW, code no. 28-4038-41, GE Healthcare) (0.3 mg/ml, mixture of Aprotinin, Ribonuclease A, Ovalbumin, and Conalbumin) and Blue Dextran 2000 were used. To obtain volumes, Mr (apparent molecular weight based on size exclusion retention) was plotted versus Kav. Kav=(Ve−Vo)/[…], Vt=total volume, Ve=elution volume, Vo=void volume.

[4] = Quantum yield determination; assay type: physicochemical; details: Table 4, DMR probes
Procedure: Quantum yields were determined as described in Demas et al., “Measurement of photoluminescence quantum yields. Review”, Journal of Physical Chemistry 75, 991-1024 (1971), and Shao et al., “Facile Synthesis of Monofunctional Pentamethine Carbocyanine Fluorophores. Dyes and pigments: an international journal 90, 119-122 (2011). For IR-783 a reference quantum yield of 0.043 was used (see Li et al., “Synthesis and characterization of glucosamine-bound near-infrared probes for optical imaging”, Organic letters 8, 3623-3626, 2006); for fluorescein a reference quantum yield was […] (see Sjoback et al., “Absorption and florescence properties of fluorescein”, Spectrohimica Acta Part A 51, L7-L21, 1995). For Cy3 a reference quantum yield of 0.31 was used (Luminprobe Inc). For PN(783)'s, excitation was at 730 nm and emission spectra were recorded from 765 nm to 870 nm in PBS and maximum emission used. For PN(545)'s, excitation was at 515 nm and emission spectra were recorded from 538 nm to 700 nm in PBS and maximum emission used. For PN(497)'s, excitation was at 450 nm and emission spectra were recorded from 475 nm to 620 nm in PBS and maximum emission used. Absorbance of each probe was adjusted less than 0.1. Measurements were made in triplicate and are expressed as mean±SD.

[5] = system: GFP expressing BT-20 breast carcinoma xenograft; assay: Tumor surface fluorescence after peritumoral (DMR) or IV injection; assay type: in vivo, mouse
Procedure: Day 1, BT-20 cells were planted into 24-well plate at 750,000 cells/well in culture medium (EMEM with 10% FBS). Day 2, the old culture medium was replaced with new culture medium containing lenti-virus (1×10^8 particles/mL) and protamine sulphate (American Pharmaceutical Partners, Los Angelus, Calif.; 10 mg/mL; 1:500 of total volume of medium). Day 3, after 16 hours of transfection, medium was changed to the culture medium (EMEM with 10% FBS). 8 hours later, green cells could be seen via fluorescence microscope.
All animal experiments were approved by the Institutional Review Committee of Massachusetts General Hospital. Female nude mice (25-30 g; 6-8 weeks old; nu/nu; Cox 7, Massachusetts General Hospital, Boston, Mass.) were anesthetized with isoflurane/O2. Tumor cell implantation was performed both sides around the shoulder. 200 μl of cell suspension containing 10^6 cells in Matrigel (BD) was injected subcutaneously. Tumor cells were inoculated for 7 to 10 days.
The diffusion and molecular retention required of the DMR technique with a tumor bearing model were investigated. We peritumorally injected the RGD probe into an animal bearing two GFP expressing BT-20 breast carcinomas and monitored tumor GFP fluorescence and probe fluorescence as a function of time after injection. The non-integrin binding RAD probe was injected into a second animal also bearing two tumors. Overlaying purple probe fluorescence over green GFP yields white. […] Tumor surface fluorescence from both probes was quantified by the use of solution standards.
In FIG. 8a), two animals bearing two tumors were PT injected with the RGD probe or RAD probe as indicated and surface fluorescence images were obtained. […] In FIG. 8b), quantitation of tumor surface fluorescence after injections of the RGD or RAD probes as above. Surface fluorescence was quantified through the use of standard solutions.
To compare the DMR and intravenous (IV) methods, surface fluorescence images of tumor GFP and RGD probe fluorescence were obtained with skin removed, and overlays from the two signals obtained. With both DMR and IV administration, probe fluorescence extended beyond tumor GFP margins to a stromal area beyond the tumor. However, tumor fluorescence was far higher with DMR than IV injection, even though dose was far lower (50 pmoles/mouse by DMR versus 2000 pmoles/mouse by IV).
In FIG. 9a), skin covering GFP-BT-20 tumor was removed. Shown are visible GFP fluorescence, probe (CyAL5.5) fluorescence, and the overlay of GFP and probe fluorescence plus an X-ray image. Green GFP plus purple CyAL5.5 fluorescence yielded a white overlaid image. In FIG. 9b), with DMR or IV, probe fluorescence included a stromal zone of integrin binding surrounding the tumor was seen. […]

Substance	tumor concentration ([1]; HT29 tumor, 48 hours post injection, IV) [% ID/gm]	injected dose in the kidney ([1]; mouse, in vivo) [%]	injected dose in the liver ([1]; mouse, in vivo) [%]	Whole body radioactivity half-life [2] [h]	Whole body radioactivity, % of injected dose [2] [%]	^111In-PN(783)10 elimination half-life [2] [h]	Equiv. Vol. ([3]; FPLC, globular protein equivalent volume) [kDa]	Molecular Volume ([3]; Table 4, DMR probes)	Quantum Yield [4]	tumor retention of probe fluorescence after peritumoral injection ([5]; BT-20 tumors, 24 hours post injection)	Tumor fluorescence ([5]; DMR, 50 pmoles/mouse) [au]	Tumor fluorescence ([5]; IV, 2000 pmoles/mouse) [au]
(^111In-DOTA)Lys(PEG30 kDa)-Cys(IR-783) [^111In-PN(783)10.0]	7.28±0.93	0.44±0.02	4.71±0.38	7.8	13.75±0.74	7.8	–	–	–	–	–	–
DOTA-Lys(CyAL5.5)-Lys(5 kDa PEG)- βAla -Lys(sPEG-RGD) [Compound 7a]	–	–	–	–	–	–	25	20-30 kDa	0.20	retained by the tumor	15.0	1.5
